B1: KRT34 (parent)
chain: PTVDLNQVLNETRSQYEALVETNR
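Also: lentivirally expressed fusions sorted by FACS into six bins by GFP to DsRed ratio, PSI derived from sequencing read proportions per bin multiplied by bin number.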

Variants of: B1
Assay: protein stability index of a GFP-peptide fusion (GPS, HEK-293T) (PSI 1-6); higher = more stable
Settings: c terminus: a fixed tail appended
PTVDLNQVLNETRSWYEALVETNR [Q15W] showed a protein stability index of 1.94. For PTVDLNQVLNETRSSYEALVETNR [Q15S], the protein stability index was 4.38. For PTVDLNQVLNETRSVYEALVETNR [Q15V], the protein stability index was 3.19. PTVDLNQVLNETRSPYEALVETNR [Q15P] gave a protein stability index of 4.34. Variant PTVDLNQVLNETRSYYEALVETNR [Q15Y] has a protein stability index of 2.91. In the case of PTVDLNQVLNETRSRYEALVETNR [Q15R], the protein stability index is reported as 4.16. PTVDLNQVLNETRSQYEALVETNM [R24M] showed a protein stability index of 2.51. With PTVDLNQVLNETRSQYEALVETNY [R24Y] the protein stability index was 2.29. In the case of PTVDLNQVLNETRSQYEALVETNE [R24E], the protein stability index is reported as 3.88. PTVDLNQVLNETRSQYEALVETNC [R24C] showed a protein stability index of 2.56. With PTVDLNQVLNETRSQYEALVETNF [R24F] the protein stability index was 2.5. For PTVDLNQVLNETRSQYEALVETNA [R24A], the protein stability index was 3.51. Work on PTVDLNQVLNETRSQYEALVETNQ [R24Q] yielded a protein stability index of 4.18. PTVDLNQVLNETRSQYEALVETNW [R24W] gave a protein stability index of 3.55. Work on PTVDLNQVLNETRSQYEALVETNG [R24G] yielded a protein stability index of 4.17. PTVDLNQVLNETRSQYEALVETNS [R24S] gave a protein stability index of 4.81. For PTVDLNQVLNETRSQYEALVETND [R24D], the protein stability index was 4.95. PTVDLNQVLNETRSQYEALVETNH [R24H] showed a protein stability index of 4.08. For PTVDLNQVLNETRSQYEALVETNI [R24I], the protein stability index was 3.11. With PTVDLNQVLNETRSQYEALVETNP [R24P] the protein stability index was 4.58. In the case of PTVDLNQVLNETRSQYEALVETNK [R24K], the protein stability index is reported as 4.32. In the case of PTVDLNQVLNETRSQYEALVETNT [R24T], the protein stability index is reported as 3.8. For PTVDLNQVLNETRSQYEALVETNL [R24L], the protein stability index was 2.68. Work on PTVDLNQVLNETRSQYEALVETNN [R24N] yielded a protein stability index of 4.74. PTVDLNQVLNETRSQYEALVETNV [R24V] showed a protein stability index of 2.17. For PTVDLNQVLNETRSQYEALVEYNR [T22Y], the protein stability index was 4.23. Work on PTVDLNQVLNETRSQYEALVEMNR [T22M] yielded a protein stability index of 3.19. With PTVDLNQVLNETRSQYEALVELNR [T22L] the protein stability index was 2.54. Variant PTVDLNQVLNETRSQYEALVEDNR [T22D] has a protein stability index of 4.58. For PTVDLNQVLNETRSQYEALVEANR [T22A], the protein stability index was 4.01. PTVDLNQVLNETRSQYEALVEENR [T22E] showed a protein stability index of 4.11. PTVDLNQVLNETRSQYEALVEKNR [T22K] gave a protein stability index of 3.66. For PTVDLNQVLNETRSQYEALVESNR [T22S], the protein stability index was 4.36. With PTVDLNQVLNETRSQYEALVEPNR [T22P] the protein stability index was 4.28. In the case of PTVDLNQVLNETRSQYEALVEINR [T22I], the protein stability index is reported as 1.68. Work on PTVDLNQVLNETRSQYEALVEFNR [T22F] yielded a protein stability index of 3.78. PTVDLNQVLNETRSQYEALVEVNR [T22V] gave a protein stability index of 1.71. PTVDLNQVLNETRSQYEALVERNR [T22R] showed a protein stability index of 4.46. PTVDLNQVLNETRSQYEALVEGNR [T22G] showed a protein stability index of 4.41. Work on PTVDLNQVLNETRSQYEALVECNR [T22C] yielded a protein stability index of 3.62. Variant PTVDLNQVLNETRSQYEALVEWNR [T22W] has a protein stability index of 4.02. For PTVDLNQVLNETRSQYEALVEHNR [T22H], the protein stability index was 3.99. For PTVDLNQVLNETRSQYEALVENNR [T22N], the protein stability index was 4.39. With PTVDLNQVLNETRSQREALVETNR [Y16R] the protein stability index was 5.42. For PTVDLNQVLNETRSQMEALVETNR [Y16M], the protein stability index was 4.76. For PTVDLNQVLNETRSQCEALVETNR [Y16C], the protein stability index was 4.44. PTVDLNQVLNETRSQAEALVETNR [Y16A] showed a protein stability index of 5.1. Variant PTVDLNQVLNETRSQVEALVETNR [Y16V] has a protein stability index of 4.9. In the case of PTVDLNQVLNETRSQTEALVETNR [Y16T], the protein stability index is reported as 4.58. In the case of PTVDLNQVLNETRSQHEALVETNR [Y16H], the protein stability index is reported as 5.25. For PTVDLNQVLNETRSQWEALVETNR [Y16W], the protein stability index was 3.63. PTVDLNQVLNETRSQLEALVETNR [Y16L] gave a protein stability index of 4.19. With PTVDLNQVLNETRSQSEALVETNR [Y16S] the protein stability index was 4.98. Variant PTVDLNQVLNETRSQGEALVETNR [Y16G] has a protein stability index of 4.89. With PTVDLNQVLNETRSQEEALVETNR [Y16E] the protein stability index was 5.44. Variant PTVDLNQVLNETRSQKEALVETNR [Y16K] has a protein stability index of 4.57. Variant PTVDLNQVLNETRSQPEALVETNR [Y16P] has a protein stability index of 4.8. Variant PTVDLNQVLNETRSQFEALVETNR [Y16F] has a protein stability index of 3.65. PTVDLNQVLNETRSQDEALVETNR [Y16D] showed a protein stability index of 5.26. In the case of PTVDLNQVLNETRSQNEALVETNR [Y16N], the protein stability index is reported as 4.99. PTVDLNQVLNETRSQQEALVETNR [Y16Q] gave a protein stability index of 5.57. In the case of PTVDLNQVLNETRSQIEALVETNR [Y16I], the protein stability index is reported as 4.23. With PTVDLNQVLNETRSQYPALVETNR [E17P] the protein stability index was 3.62. Variant PTVDLNQVLNETRSQYVALVETNR [E17V] has a protein stability index of 3.7. For PTVDLNQVLNETRSQYSALVETNR [E17S], the protein stability index was 3.85. Variant PTVDLNQVLNETRSQYWALVETNR [E17W] has a protein stability index of 3.35. Variant PTVDLNQVLNETRSQYRALVETNR [E17R] has a protein stability index of 3.83. With PTVDLNQVLNETRSQYYALVETNR [E17Y] the protein stability index was 3.22. PTVDLNQVLNETRSQYLALVETNR [E17L] showed a protein stability index of 3.85. PTVDLNQVLNETRSQYCALVETNR [E17C] showed a protein stability index of 2.93. Work on PTVDLNQVLNETRSQYHALVETNR [E17H] yielded a protein stability index of 3.93. PTVDLNQVLNETRSQYQALVETNR [E17Q] gave a protein stability index of 3.88. Variant PTVDLNQVLNETRSQYDALVETNR [E17D] has a protein stability index of 4.67. PTVDLNQVLNETRSQYKALVETNR [E17K] showed a protein stability index of 4.12. In the case of PTVDLNQVLNETRSQYNALVETNR [E17N], the protein stability index is reported as 4.05. Work on PTVDLNQVLNETRSQYFALVETNR [E17F] yielded a protein stability index of 3.08. Work on PTVDLNQVLNETRSQYTALVETNR [E17T] yielded a protein stability index of 4.23. Variant PTVDLNQVLNETRSQYIALVETNR [E17I] has a protein stability index of 2.71. Variant PTVDLNQVLNETRSQYAALVETNR [E17A] has a protein stability index of 3.77. PTVDLNQVLNETRSQYGALVETNR [E17G] showed a protein stability index of 4.02. Variant PTVDLNQVLNETRSQYMALVETNR [E17M] has a protein stability index of 3.68. PTVDLNQVLNETRSQYEANVETNR [L19N] gave a protein stability index of 5.01. PTVDLNQVLNETRSQYEAVVETNR [L19V] gave a protein stability index of 4.44. PTVDLNQVLNETRSQYEAAVETNR [L19A] showed a protein stability index of 4.47. With PTVDLNQVLNETRSQYEAEVETNR [L19E] the protein stability index was 5.63. For PTVDLNQVLNETRSQYEASVETNR [L19S], the protein stability index was 4.99. With PTVDLNQVLNETRSQYEAGVETNR [L19G] the protein stability index was 5.03. Variant PTVDLNQVLNETRSQYEADVETNR [L19D] has a protein stability index of 5.03. With PTVDLNQVLNETRSQYEAPVETNR [L19P] the protein stability index was 4.7. In the case of PTVDLNQVLNETRSQYEAWVETNR [L19W], the protein stability index is reported as 3.98. In the case of PTVDLNQVLNETRSQYEAKVETNR [L19K], the protein stability index is reported as 5.17. Work on PTVDLNQVLNETRSQYEACVETNR [L19C] yielded a protein stability index of 4.72. Variant PTVDLNQVLNETRSQYEAIVETNR [L19I] has a protein stability index of 4.16. With PTVDLNQVLNETRSQYEAHVETNR [L19H] the protein stability index was 4.75.

From the supplement of paper PMC10567573
